Reference: the supplement of paper PMC10065799, “High-throughput profiling of sequence recognition by tyrosine kinases and SH2 domains using bacterial peptide display” (eLife, 2023)
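Also: 11-residue human phosphosite peptides and single-mutation variants displayed on the E. coli surface, counted by deep sequencing, each peptide's frequency after selection divided by its frequency in the unselected input library; frequency after pTyr selection over input frequency; kinase dosed for 20-30% of maximal phosphorylation in three min.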

These sequences were tested on AncSZ (assay: phosphorylation enrichment, bacterial display (enrichment ratio); higher = better substrate or ligand; peptides without Tyr show the background).
Sequence VYLGAYDRFLP [SLC22A5_Y486] has a phosphorylation enrichment of 1.25.
In the case of FLGEEYVKAVG [TF_Y674_YF], the phosphorylation enrichment is reported as 0.842.
Work on DLEKTYNTYRS [B4GALNT2_Y538_A533D] yielded a phosphorylation enrichment of 0.848.
For MRNDLYQTPLH [NFKB1_Y582], the phosphorylation enrichment was 1.69.
For KHCEDYVCSFN [DSC1_Y846_YF], the phosphorylation enrichment was 1.15.
In the case of GVYSRHFTTYD [CLCA1_Y661_Y661H], the phosphorylation enrichment is reported as 0.823.
Work on PSARTYCFKQE [KLHDC9_Y175_YF] yielded a phosphorylation enrichment of 0.743.
For LFHENYNAGTF [CFI_Y421_I416L_YF], the phosphorylation enrichment was 0.928.
For ELAKYYKLHHI [AK7_Y391_N389K], the phosphorylation enrichment was 0.884.
Sequence PEVSGYCHCAD [TG_Y234] has a phosphorylation enrichment of 2.1.
Work on DPNQQYFIAMD [TBX15_Y159_H156N_YF] yielded a phosphorylation enrichment of 1.07.
For GSERRYTREGG [PTPRN2_Y139_S140T], the phosphorylation enrichment was 0.448.
SQQTFYPVSNM [ABCD1_Y181_R182P_YF] gave a phosphorylation enrichment of 0.706.
EFKDAYKFAAD [BRDT_Y335_YF] showed a phosphorylation enrichment of 0.647.
For KTSGNYLAVTG [WDR19_Y28], the phosphorylation enrichment was 0.573.
Sequence TFGVAYRAKDK [CDK11B_Y453_V452A_YF] has a phosphorylation enrichment of 1.08.
Work on SGGSSYGSGGC [KRT1_Y532_G537C] yielded a phosphorylation enrichment of 0.681.
For PTDCVYVMPTV [MYO7A_Y1668_S1666C], the phosphorylation enrichment was 5.31.
TLQSMYGCDLG [HLA-B_Y123_V127L] was tested, and the phosphorylation enrichment was 1.18.
SLDHPFEKPRK [INAVA_Y333_Y333F] was tested, and the phosphorylation enrichment was 0.589.
Sequence GRTNICKNKKD [SLC26A3_Y520_Y520C] has a phosphorylation enrichment of 0.631.
With AGADGYDFLAP [FOXL2_Y186_G187D_YF] the phosphorylation enrichment was 0.984.
For VISNAYVDLAP [HSD17B4_Y602], the phosphorylation enrichment was 0.675.
PPNSPYIGSSP [KCNT1_Y740] was tested, and the phosphorylation enrichment was 0.501.
CEQELYSQLVY [WAS_Y102_W97C] was tested, and the phosphorylation enrichment was 1.9.
FFTEEYVRAHP [DOCK2_Y1555_D1558A] was tested, and the phosphorylation enrichment was 1.54.
Work on HRGFLYLAIEF [TEK_Y899_Y897F_YF] yielded a phosphorylation enrichment of 1.49.
Work on AYRHGYFDEEM [PLEC_Y2971_R2969H] yielded a phosphorylation enrichment of 1.03.
Sequence KGIQLYDTPYE [SHB_Y297] has a phosphorylation enrichment of 1.5.

These sequences were tested against EPHB1 (UniProt P54762) in the same assay as above.
EPHB1, sequence (P54762 whole entry, looked up): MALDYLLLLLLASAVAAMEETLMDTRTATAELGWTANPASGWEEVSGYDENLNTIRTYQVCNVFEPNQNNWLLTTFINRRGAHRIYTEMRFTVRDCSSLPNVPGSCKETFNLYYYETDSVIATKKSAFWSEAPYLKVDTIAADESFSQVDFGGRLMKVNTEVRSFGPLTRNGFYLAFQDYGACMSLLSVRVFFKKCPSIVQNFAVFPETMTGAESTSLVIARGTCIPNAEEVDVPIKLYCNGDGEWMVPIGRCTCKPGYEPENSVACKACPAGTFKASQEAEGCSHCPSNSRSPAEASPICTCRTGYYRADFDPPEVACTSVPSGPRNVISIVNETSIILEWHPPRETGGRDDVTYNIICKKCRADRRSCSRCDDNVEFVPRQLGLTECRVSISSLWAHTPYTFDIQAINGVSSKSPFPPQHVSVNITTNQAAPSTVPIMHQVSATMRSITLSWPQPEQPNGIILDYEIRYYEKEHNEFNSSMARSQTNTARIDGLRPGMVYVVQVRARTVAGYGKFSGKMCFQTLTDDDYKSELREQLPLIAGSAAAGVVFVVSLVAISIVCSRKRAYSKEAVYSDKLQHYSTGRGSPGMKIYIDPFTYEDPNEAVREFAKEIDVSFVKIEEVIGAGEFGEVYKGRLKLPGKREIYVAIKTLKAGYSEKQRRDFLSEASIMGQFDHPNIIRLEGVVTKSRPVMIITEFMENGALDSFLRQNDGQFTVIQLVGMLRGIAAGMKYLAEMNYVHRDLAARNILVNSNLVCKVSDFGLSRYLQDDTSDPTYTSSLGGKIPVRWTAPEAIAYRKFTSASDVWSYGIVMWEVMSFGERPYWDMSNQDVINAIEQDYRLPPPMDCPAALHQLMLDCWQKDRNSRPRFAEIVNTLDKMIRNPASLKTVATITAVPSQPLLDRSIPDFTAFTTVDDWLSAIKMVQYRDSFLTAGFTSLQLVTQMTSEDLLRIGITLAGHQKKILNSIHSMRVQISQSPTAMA
VYLGAYDRFLP [SLC22A5_Y486] showed a phosphorylation enrichment of 1.82.
FLGEEYVKAVG [TF_Y674_YF] gave a phosphorylation enrichment of 0.489.
With DLEKTYNTYRS [B4GALNT2_Y538_A533D] the phosphorylation enrichment was 0.382.
For MRNDLYQTPLH [NFKB1_Y582], the phosphorylation enrichment was 1.19.
KHCEDYVCSFN [DSC1_Y846_YF] gave a phosphorylation enrichment of 0.564.
For GVYSRHFTTYD [CLCA1_Y661_Y661H], the phosphorylation enrichment was 0.495.
For PSARTYCFKQE [KLHDC9_Y175_YF], the phosphorylation enrichment was 0.386.
Work on LFHENYNAGTF [CFI_Y421_I416L_YF] yielded a phosphorylation enrichment of 0.848.
For ELAKYYKLHHI [AK7_Y391_N389K], the phosphorylation enrichment was 0.589.
PEVSGYCHCAD [TG_Y234] was tested, and the phosphorylation enrichment was 3.57.
DPNQQYFIAMD [TBX15_Y159_H156N_YF] was tested, and the phosphorylation enrichment was 0.466.
For GSERRYTREGG [PTPRN2_Y139_S140T], the phosphorylation enrichment was 0.345.
SQQTFYPVSNM [ABCD1_Y181_R182P_YF] showed a phosphorylation enrichment of 0.387.
EFKDAYKFAAD [BRDT_Y335_YF] was tested, and the phosphorylation enrichment was 0.367.
KTSGNYLAVTG [WDR19_Y28] gave a phosphorylation enrichment of 0.974.
TFGVAYRAKDK [CDK11B_Y453_V452A_YF] was tested, and the phosphorylation enrichment was 0.472.
Work on SGGSSYGSGGC [KRT1_Y532_G537C] yielded a phosphorylation enrichment of 0.558.
PTDCVYVMPTV [MYO7A_Y1668_S1666C] showed a phosphorylation enrichment of 3.34.
TLQSMYGCDLG [HLA-B_Y123_V127L] showed a phosphorylation enrichment of 0.836.
In the case of SLDHPFEKPRK [INAVA_Y333_Y333F], the phosphorylation enrichment is reported as 0.317.
GRTNICKNKKD [SLC26A3_Y520_Y520C] showed a phosphorylation enrichment of 0.462.
AGADGYDFLAP [FOXL2_Y186_G187D_YF] was tested, and the phosphorylation enrichment was 0.554.
In the case of VISNAYVDLAP [HSD17B4_Y602], the phosphorylation enrichment is reported as 0.436.
In the case of PPNSPYIGSSP [KCNT1_Y740], the phosphorylation enrichment is reported as 0.493.
CEQELYSQLVY [WAS_Y102_W97C] showed a phosphorylation enrichment of 4.86.
For FFTEEYVRAHP [DOCK2_Y1555_D1558A], the phosphorylation enrichment was 0.66.
Work on HRGFLYLAIEF [TEK_Y899_Y897F_YF] yielded a phosphorylation enrichment of 0.765.
AYRHGYFDEEM [PLEC_Y2971_R2969H] was tested, and the phosphorylation enrichment was 0.664.
KGIQLYDTPYE [SHB_Y297] showed a phosphorylation enrichment of 11.3.

The sequences below were run against EPHB2 (UniProt P29323) in the same assay as above.
EPHB2, sequence (P29323 whole entry, looked up): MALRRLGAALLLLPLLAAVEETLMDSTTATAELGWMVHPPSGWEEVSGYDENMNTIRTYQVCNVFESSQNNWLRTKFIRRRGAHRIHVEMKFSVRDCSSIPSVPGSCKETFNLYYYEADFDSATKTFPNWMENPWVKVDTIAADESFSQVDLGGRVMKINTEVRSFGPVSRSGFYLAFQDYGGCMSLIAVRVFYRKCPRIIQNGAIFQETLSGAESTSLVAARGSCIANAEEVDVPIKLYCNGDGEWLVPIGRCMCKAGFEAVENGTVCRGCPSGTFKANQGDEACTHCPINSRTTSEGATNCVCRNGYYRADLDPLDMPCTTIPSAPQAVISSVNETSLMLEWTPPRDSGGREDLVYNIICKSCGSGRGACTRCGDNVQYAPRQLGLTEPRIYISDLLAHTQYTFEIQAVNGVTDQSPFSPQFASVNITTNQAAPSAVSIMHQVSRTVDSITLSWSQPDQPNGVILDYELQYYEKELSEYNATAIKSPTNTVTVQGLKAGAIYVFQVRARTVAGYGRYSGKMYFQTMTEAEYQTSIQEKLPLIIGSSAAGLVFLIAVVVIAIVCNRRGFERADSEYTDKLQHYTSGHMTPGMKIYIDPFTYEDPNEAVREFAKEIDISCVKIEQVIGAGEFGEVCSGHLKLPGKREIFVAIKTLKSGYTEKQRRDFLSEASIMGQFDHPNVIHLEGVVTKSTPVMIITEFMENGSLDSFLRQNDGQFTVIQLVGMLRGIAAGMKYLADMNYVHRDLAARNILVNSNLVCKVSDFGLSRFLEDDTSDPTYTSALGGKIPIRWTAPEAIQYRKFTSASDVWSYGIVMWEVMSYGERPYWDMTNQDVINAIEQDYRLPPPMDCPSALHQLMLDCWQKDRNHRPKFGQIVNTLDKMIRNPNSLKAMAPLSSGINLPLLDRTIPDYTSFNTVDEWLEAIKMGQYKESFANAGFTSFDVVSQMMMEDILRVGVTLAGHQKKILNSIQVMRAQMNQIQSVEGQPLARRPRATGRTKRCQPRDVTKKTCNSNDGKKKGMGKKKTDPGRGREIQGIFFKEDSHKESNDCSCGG
In the case of VYLGAYDRFLP [SLC22A5_Y486], the phosphorylation enrichment is reported as 2.53.
For FLGEEYVKAVG [TF_Y674_YF], the phosphorylation enrichment was 0.453.
For DLEKTYNTYRS [B4GALNT2_Y538_A533D], the phosphorylation enrichment was 0.509.
MRNDLYQTPLH [NFKB1_Y582] was tested, and the phosphorylation enrichment was 2.44.
In the case of KHCEDYVCSFN [DSC1_Y846_YF], the phosphorylation enrichment is reported as 0.522.
GVYSRHFTTYD [CLCA1_Y661_Y661H] gave a phosphorylation enrichment of 0.473.
In the case of PSARTYCFKQE [KLHDC9_Y175_YF], the phosphorylation enrichment is reported as 0.595.
With LFHENYNAGTF [CFI_Y421_I416L_YF] the phosphorylation enrichment was 1.23.
Sequence ELAKYYKLHHI [AK7_Y391_N389K] has a phosphorylation enrichment of 0.562.
In the case of PEVSGYCHCAD [TG_Y234], the phosphorylation enrichment is reported as 1.4.
Work on DPNQQYFIAMD [TBX15_Y159_H156N_YF] yielded a phosphorylation enrichment of 0.443.
For GSERRYTREGG [PTPRN2_Y139_S140T], the phosphorylation enrichment was 0.347.
With SQQTFYPVSNM [ABCD1_Y181_R182P_YF] the phosphorylation enrichment was 0.49.
In the case of EFKDAYKFAAD [BRDT_Y335_YF], the phosphorylation enrichment is reported as 0.491.
For KTSGNYLAVTG [WDR19_Y28], the phosphorylation enrichment was 0.517.
TFGVAYRAKDK [CDK11B_Y453_V452A_YF] showed a phosphorylation enrichment of 0.575.
SGGSSYGSGGC [KRT1_Y532_G537C] was tested, and the phosphorylation enrichment was 0.596.
PTDCVYVMPTV [MYO7A_Y1668_S1666C] gave a phosphorylation enrichment of 2.4.
In the case of TLQSMYGCDLG [HLA-B_Y123_V127L], the phosphorylation enrichment is reported as 0.522.
Sequence SLDHPFEKPRK [INAVA_Y333_Y333F] has a phosphorylation enrichment of 0.433.
GRTNICKNKKD [SLC26A3_Y520_Y520C] gave a phosphorylation enrichment of 0.447.
Sequence AGADGYDFLAP [FOXL2_Y186_G187D_YF] has a phosphorylation enrichment of 0.645.
Work on VISNAYVDLAP [HSD17B4_Y602] yielded a phosphorylation enrichment of 0.557.
Sequence PPNSPYIGSSP [KCNT1_Y740] has a phosphorylation enrichment of 0.468.
CEQELYSQLVY [WAS_Y102_W97C] was tested, and the phosphorylation enrichment was 5.74.
In the case of FFTEEYVRAHP [DOCK2_Y1555_D1558A], the phosphorylation enrichment is reported as 0.664.
For HRGFLYLAIEF [TEK_Y899_Y897F_YF], the phosphorylation enrichment was 0.539.
With AYRHGYFDEEM [PLEC_Y2971_R2969H] the phosphorylation enrichment was 0.631.
Work on KGIQLYDTPYE [SHB_Y297] yielded a phosphorylation enrichment of 15.6.

What follows are sequences tested against FGFR1 (UniProt P11362) in the same assay as above.
FGFR1, sequence (P11362 whole entry, looked up): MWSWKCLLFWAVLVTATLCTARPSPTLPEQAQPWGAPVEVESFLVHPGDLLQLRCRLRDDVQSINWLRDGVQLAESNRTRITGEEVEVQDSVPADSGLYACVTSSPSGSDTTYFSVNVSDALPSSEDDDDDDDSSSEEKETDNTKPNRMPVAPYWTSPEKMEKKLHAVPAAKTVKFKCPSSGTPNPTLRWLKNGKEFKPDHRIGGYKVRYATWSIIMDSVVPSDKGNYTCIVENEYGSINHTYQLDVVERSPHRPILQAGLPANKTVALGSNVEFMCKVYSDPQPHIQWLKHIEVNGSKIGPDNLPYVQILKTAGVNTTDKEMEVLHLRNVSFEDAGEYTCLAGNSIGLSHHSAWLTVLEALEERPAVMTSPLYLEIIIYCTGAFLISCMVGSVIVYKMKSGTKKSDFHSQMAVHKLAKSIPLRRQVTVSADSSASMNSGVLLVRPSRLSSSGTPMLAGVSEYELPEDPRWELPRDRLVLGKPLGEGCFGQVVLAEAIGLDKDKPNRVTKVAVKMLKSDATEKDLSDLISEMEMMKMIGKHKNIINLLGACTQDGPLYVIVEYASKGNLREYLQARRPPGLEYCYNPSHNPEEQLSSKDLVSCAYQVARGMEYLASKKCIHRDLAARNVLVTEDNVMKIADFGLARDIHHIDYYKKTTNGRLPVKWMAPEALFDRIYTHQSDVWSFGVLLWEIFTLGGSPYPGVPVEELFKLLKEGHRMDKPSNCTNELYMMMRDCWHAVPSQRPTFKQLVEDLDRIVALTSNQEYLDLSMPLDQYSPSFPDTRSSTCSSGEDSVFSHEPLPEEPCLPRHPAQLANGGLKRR
Work on VYLGAYDRFLP [SLC22A5_Y486] yielded a phosphorylation enrichment of 0.948.
Work on FLGEEYVKAVG [TF_Y674_YF] yielded a phosphorylation enrichment of 0.453.
Sequence DLEKTYNTYRS [B4GALNT2_Y538_A533D] has a phosphorylation enrichment of 0.554.
Sequence MRNDLYQTPLH [NFKB1_Y582] has a phosphorylation enrichment of 0.454.
For KHCEDYVCSFN [DSC1_Y846_YF], the phosphorylation enrichment was 0.572.
Work on GVYSRHFTTYD [CLCA1_Y661_Y661H] yielded a phosphorylation enrichment of 0.389.
Sequence PSARTYCFKQE [KLHDC9_Y175_YF] has a phosphorylation enrichment of 0.469.
In the case of LFHENYNAGTF [CFI_Y421_I416L_YF], the phosphorylation enrichment is reported as 0.634.
For ELAKYYKLHHI [AK7_Y391_N389K], the phosphorylation enrichment was 0.516.
PEVSGYCHCAD [TG_Y234] showed a phosphorylation enrichment of 1.11.
DPNQQYFIAMD [TBX15_Y159_H156N_YF] was tested, and the phosphorylation enrichment was 0.892.
GSERRYTREGG [PTPRN2_Y139_S140T] gave a phosphorylation enrichment of 0.458.
SQQTFYPVSNM [ABCD1_Y181_R182P_YF] was tested, and the phosphorylation enrichment was 0.507.
Work on EFKDAYKFAAD [BRDT_Y335_YF] yielded a phosphorylation enrichment of 0.414.
For KTSGNYLAVTG [WDR19_Y28], the phosphorylation enrichment was 0.5.
TFGVAYRAKDK [CDK11B_Y453_V452A_YF] showed a phosphorylation enrichment of 0.418.
SGGSSYGSGGC [KRT1_Y532_G537C] gave a phosphorylation enrichment of 0.589.
Work on PTDCVYVMPTV [MYO7A_Y1668_S1666C] yielded a phosphorylation enrichment of 5.
Work on TLQSMYGCDLG [HLA-B_Y123_V127L] yielded a phosphorylation enrichment of 0.491.
Sequence SLDHPFEKPRK [INAVA_Y333_Y333F] has a phosphorylation enrichment of 0.388.
GRTNICKNKKD [SLC26A3_Y520_Y520C] showed a phosphorylation enrichment of 0.471.
For AGADGYDFLAP [FOXL2_Y186_G187D_YF], the phosphorylation enrichment was 0.543.
Work on VISNAYVDLAP [HSD17B4_Y602] yielded a phosphorylation enrichment of 0.89.
With PPNSPYIGSSP [KCNT1_Y740] the phosphorylation enrichment was 0.537.
CEQELYSQLVY [WAS_Y102_W97C] was tested, and the phosphorylation enrichment was 3.8.
FFTEEYVRAHP [DOCK2_Y1555_D1558A] was tested, and the phosphorylation enrichment was 0.556.
In the case of HRGFLYLAIEF [TEK_Y899_Y897F_YF], the phosphorylation enrichment is reported as 0.515.
AYRHGYFDEEM [PLEC_Y2971_R2969H] gave a phosphorylation enrichment of 0.676.
KGIQLYDTPYE [SHB_Y297] gave a phosphorylation enrichment of 0.564.
